In the RNAGym collection of RNA variant scans (doi:10.1073/pnas.2313332121):
Variants at the floor of the assay were thinned out.

B1: TPR 5TU (parent)
chain: GGAUCUUCUCGAUCUAACAAAAAAGACAAAUCUGCCACAAAGCUUGAGAGCAUCUUCGGAUGCAGAGGCGGCAGCCUUCGGUGGCGCGAUAGCGCCAACGUUCUCAACUAUGACACGCAAAACGCGUGCUCCGUUGAAUGGAGUUUAUCAUG

Variants of: B1
Assay: polymerase ribozyme fitness, log enrichment relative to wild type (log ratio); higher = more active; in vitro selection for triplet polymerase activity
How it was run: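 Only genotypes with ≥10 input reads and ≥1 read per output were kept after Illumina sequencing of input and output libraries. These libraries were PCR-built, transcribed mutants of each subunit of a heterodimeric triplet polymerase ribozyme, each put through one triplicate in vitro selection round with frozen incubation at −7 °C, gel excision of extended constructs, streptavidin-bead capture and RT-PCR. Fitness is a logarithmic ratio of genotype enrichment to wild-type enrichment, from inverse-variance-weighted replicate averages, with the logarithm in base 2.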

| Variant | polymerase ribozyme fitness (log ratio) |
| --- | --- |
| GGAUCUUCUUGAUCUAACAAAAAAGACAAAUUUGUCACAAAGCUUGAGCGAAUCUUCGGAUGCAGAGGCGGCAGCCUUCGGUGGCGAGAUAGCGCCAACGUUCUCAACUAUGACACGCAAAACGCGUGCUCCGUUGAAUGAAGUUUAUCAUG [C10U C32U C35U A49C C51A C87A G141A] | ≤ -4.2 |
| GGAUCUUCUCGAUCUAACAAAAAAGACAAAUCUGCCACAAAGCUUGAGAGCAUCUUCGGAUGCAGAGGCGGCAGCCUUCGGGGGCGCGAUAGCGCCAACGUUCUCAACUAUGACACGCAAAACGCGUGCUCCCUUGAAUAGAGUUUAUCAUG [U82G G133C G140A] | -3.39 |
| GGAUCUUCUCGAUCUAUCAAAAAAGACAAAUCUGCCACAUAGCUUGAGAGCGUCUUCGAAUGCAGAGGCGGCAGCCUUCGGUGGCGCGAUAGCGCCAAGGUUCUCAACUAUGACACGCAAAACGCGUGCUCCGUCGAGUGGAGUUUAUCAUG [A17U A40U A52G G59A C99G U135C A138G] | ≤ -4.2 |
| GGAUCUUCUCGAUCUAACGAAAAAGACAAAUCUGCCACAAAGCAUGAGAGCAUCUUCAGAUGCAGAAGCGGCAGCCUUCGGUGGCGAGAUAGCGCCAACGUUCUCGACUAUGACACGCAAAACGCGUGCUCCGUUGAAUGUAGUUUAUCAUG [A19G U44A G58A G67A C87A A106G G141U] | ≤ -4.2 |
| GGAUCUUCUCGAUCUAAUAAAAAAGACAAAUCUGCCACAAAGCUUGAGAGCAUCUUCCGAUGCAGAGGCGGCGGCCUUCGGUGGCGCGAUAGCGCCAACGUUCUCAACUAUGACACGCAAAACGCGUGCUCAGUUGAAUGGAGUUUAUCAUG [C18U G58C A73G C132A] | -3.75 |
| GGAUCUUCUCGAUCUAACAAAAAAGACAAAUCUGCCACAAAGCUUGAGAGCAUCUUCGGAUGCAGAGGCGGCAGCCUUCGGUGGCGCGAUAGCGCCAACGUUCUCAACUAUGACACGCAAAACGCGUGCCCCGUUGAGUGGAGUUUAUCAUG [U130C A138G] | -3.28 |
| GGAUCUUCUCGAUCUAACAAAAAAGACAAAUCUGCCACUAAGCUUGAGAGCAUCUUCGGAUGCAGAGGCGGCAGCCUUCGGUGGCGCGAUAGCGCCAACGUUCUCAACUAUGACACGCAAAACGCGUGCUCCGUUGACUGGAGUUUAUCGUG [A39U A138C A150G] | -4.1 |
| GGAUCUUCUCGAUCUAACAAAAAAGACAAAUCUGCCACAAAGCUUGAGAGCAUCUUCGGAUGCAGAGGCGGCAGCCUUCGGUGGCGCGAUAGCGCCAACGUUCUCAACUAUGACACGCAAAUCGCGUGCUCCGUUGAAUGGAGUUUAUCAUG [A122U] | -0.218 |
| GGAUCUUCUCGAUCUAACAAAAAAGACAAAUCUGCCACAAAGCUUGAGAGCAACUUCGGAUGCAGAGGCGGCAGCCUUCGGUGGCGCGAUACCGCCAACGUUCUCAACUAUGACACGCAAAACGCGUGCUCCGUUGGAUGGAGUUUAUCAUG [U53A G92C A137G] | -3.41 |
| GGAUCUUCUCGAUCUAACAAAAAAGACAAAUCUGCCACAAAGCUUGAGAGCAUCUACGGAUGCAGAGGCGGCAGCCUUCGGUGGCGCGAUAGAGCCAGCGUUCUCAACUAUGACACGCAAAACGCGUGCUCCGUUGAAUGGAGUUUAUCAUG [U56A C93A A98G] | -2.63 |
| GGAUCUUCUCGAUCUAACCAAAAAGACAAAUCUGCCACAAAGCUUGAGAGCAUCUUCGGAUGCAGAGGCGGCAGCCUUCGGUUGCGCGAUAGCGCCAACGUUCUCAACUAUGACACGCAAAACGCGUGCUCCGUUGAAUGGAGUUUAUCAUG [A19C G83U] | 0.141 |
| GGAUCUUCUCGAUCUAACAAAAAAGACAAAUCUGCCACAAAGCUUGAGAACAUCGUCGGAUGCAGACGCGGCAGCCUUCUGUGGGGCGAUAGCGCCAACGUUCUUAACUAUGACACGCAAAACGCGUGCUCCGUUGAUUGGAGUUUAUCAUG [G50A U55G G67C G80U C85G C105U A138U] | ≤ -4.2 |
| GGAUCUUCUCGAUGUAACAAAAAGGGCAAAUCUGCCACCAAGCUUGAGAGCAUCUUCGGAUGCAGCGGCGGCAGCCUUCGGUGGCGCGAUAGCGCCAACGUUCUUAUCUAUGACACGCAAAACGCGUGCUCCGUUGAAUGGAGUUUAUCAUG [C14G A24G A26G A39C A66C C105U A107U] | ≤ -4.2 |
| GGAUCUUCUCGAUCUAACAAAAAAGACAAAUCUGCCACAAAGCUUGAGAGCAUCUUCGGAUGCAGAGGCGGCAGCCUUCGGUGGCGCGAUAGCGCCAACGUUCUAGACUAUGACACGCAAAACGCGUGCUCCGUUGAAUGGAGUUUAUCAUG [C105A A106G] | -0.311 |
| GGAUCUUCUCGAUCUAACAGAAAAGACAAAUCUGCCACAAAGCUUGAGAGCAUCUUCGGAUGCAGAUGCGGCAGCCUUCGGUGGCGCGAUAGCGCCAACGUUCUCAACUAUGACACGCAAAACGCGUGCUCCGUUGAAUGGAGUUUAUCAUG [A20G G67U] | -2.82 |
| GGAUCUUCUCGCUCUAACAAAAAAGACAAAUCUGCCACAAAGCUUGAGAGCAUCUACGGAUGCAGAGGCGGCAGCCUUCGGUGGCGCUAUAGCGCCAACGUUCUCAACUAUGACACGCAAAACGCGUGCUCCGUUGAAUGGAGUUUAUCAUG [A12C U56A G88U] | -3.41 |
| GGAUCUUCUCGAUCUAACAAAAAAGACAACUCUGCCACAAAGCUUGAGAGCAUCUUCGGAUGCAGAGGCGGCAGCCUUCGGUGGCGCGAUAGUGCCAACGUUCUCAACUAUGACACGCAAAACGCGUGCUCCGUUGAAUGGAGUUUAUCAUG [A30C C93U] | ≤ -4.2 |
| GGAUCUUCUCGAUCUAACAAAAAAGACAAAUCUGCCACAAAGCUUGAGAGCAUCUUCGGAUGCAGAGGCGGCAGCCUUCGGUGGCGCGAUACCGCCAACGUUCUCAACUAUGAUACGCAAAACGCGUGCUCCGUUGAAUGGAGUUUAUCAGG [G92C C114U U151G] | -4.12 |
| GGAUCUUCUCGAUCUAACAAAAAAGACAAAUCUGCCACAAAGCUAGAGUGCAUCUUCGGAUGCAGAGGCGGCAGACUUCGGUCGCGGGAUAGCGCCAACGUUCUCAACUAUGACACUCAAAACGCGAGCUCCGUUGAAAGGAGUUUAUCAUU [U45A A49U C75A G83C C87G G117U U127A U139A G152U] | ≤ -4.2 |
